# Results published in the DeepSol protein solubility set.
# Experiment: soluble on expression in E. coli; label from the status in PepcDB or PDB records
row,Sequence,soluble on expression in E. coli
1,MMNLHALPTSPRRWQCYDGGNFYQTRLRVSESPNMFKKILFPLVALFMLAGCAKPPTTIEVSPTITLPQQDPSLMGVTVSINGADQRTDQALAKVTRDNQIVTLTASRALRFLLQEVLEKQMTARGYMVGPNGPVNLQIIVSQLYADVSQGNVRYNIATKADIAIIATAQNGNKMTKNYRASYNVEGAFQASNKNIADAVNSVLTDTIADMSQDTSIHEFIKQNAR,not soluble
2,MGSSHHHHHHSSGLVPRGSHMAADNRVQMRTTINNESPLLLSPLYGNDNGNGLWWGNTLKGAWEAIPEDVKPYAAIELHPAKVCKPTSCIPRDTKELREWYVKMLEEAQSLNIPVFLVIMSAGERNTVPPEWLDEQFQKYSVLKGVLNIANYWIYNNQLAPHSAKYLEVCAKYGAHFIWHDHEKWFWETIMNDPTFFEASQKYHKNLVLATKNTPIRDDAGTDSIVSGFWLSGLCDNWGSSTDTWKWWEKHYTNTFETGRARDMRSYASEPESMIAMEMMNVYTGGGTVYNFECAAYTFMTNDVPTPAFTKGIIPFFRHAIQNPAPSKEEVVNRTKAVFWNGEGRISSLNGFYQGLYSNDETMPLYNNGRYHILPVIHEKIDKEKISSIFPNAKILTKNSEELSSKVNYLNSLYPKLYEGDGYAQRVGNSWYIYNSNANINKNQQVMLPMYTNNTKSLSLDLTPHTYAVVKENPNNLHILLNNYRTDKTAMWALSGNFDASKSWKKEELELANWISKNYSINPVDNDFRTTTLTLKGHTGHKPQINISGDKNHYTYTENWDENTHVYTITVNHNGMVEMKI,soluble
3,MGSDKIHHHHHHMNAERQPSCCKVRLLLCDKSYPSHQSPIYTPTPPPWPLLALPGGVIMRTYLSSVAAIMSRSPDPAPRSSAPGRRASSSTRPPLARIGEVAYLKVVAVNTTGAFLDWGQPKDVLLPFAEQRFRPEVGKRVLVMLYEDAQGRPVASMRLDRFLADEATDLKAGDQVALVVAERTDLGFKAVVDHRYWGLLYADDIVHPPRRGQRLTGYIKRVREDGRLDLAMLPPGEAGLDVVGDKVLALLRCHGGFVALGDKTPAAEIKARVGVSKSAFKQAVGRLYKKRLITIEAEGIRLTREAIDDASSD,not soluble
4,MGSDKIHHHHHHVMTKAADGMSDWDNMAIICDVLGRAPDVEMGSIGEGWSLCRWRQFVGAYTLPALPQPIFTVHIAGKPQVKTWDKGGWTETSSIPGCATIVPAGMPTGWLVDGELDVVTLSMASDVLAGQPHADQFNRMRFAFSDPLGVALTRQILSEIYAPQAEERTAYVSAMVGALKAHILSGPPAHGNPVDIPVSDFSAYRLHKIMNAILADPAAEHSLEAMAAVAGVTPSHFCRLFKKAIGITPHQYVMKARLDRAQQMLVQTEMSLAALSEAAGFASQSHFSRAFRSWFGMAPSDFRQQERRRTD,not soluble
5,GAMADDAAIQQTLAKMGIKSSDIQPAPVAGMKTVLTNSGVLYITDDGKHIIQGPMYDVSGTAPVNVTNKMLLKQLNALEKEMIVYKAPQEKHVITVFTDITCGYSHKLHEQMADYNALGITVRYLAFPRQGLDSDAEKEMKAIWCAKDKNKAFDDVMAGKSVAPASCDVDIADHYALGVQLGVSGTPAVVLSNGTLVPGYQPPKEMKEFLDEHQKMTSGK,soluble
6,MVERLTIIRGVEKFELQTKTARWVLAKEEGYSPVQMLVSAIGACGGYVYQSVLENSHIPFEFEKIEVTYSREVERRAQPLKQVTILFYVTVPEAFQERATRCLKLVSPNCPVIQSLAERITVEETVVFKK,not soluble
7,PITNGHLDLIERAAQMFDEVIIAVAASPSKNTLFTLEERVEFARQVTSHLDNVSAKGFSGLLVDFAKAEKANVLIRGLRTTVDFEYEFGLTNMYRRLMPGLESVFLTPAEEHAFISSTLVREVAIHGGNVDEFVPAIVANALHQKKKI,not soluble
8,MFTESPSRAISSYQRVGVESGVVSADPHKLILMLFEGARQALDCSLLYIQQNRIAAKGEMISKAIMIIDHGLKASLDKTAGGELANRLEQLYDYMTARLLTANLQNDAVIIEEISCLLGELHEAWASIGNQPAGKTDVQTATRNTIEDTAGTGAMA,not soluble
9,MMEGVRRAVAKFLRGGGVYEKAVDAFVKDLQRELIKADVNVKLVLNVTRRIKERALKEEPPPGVTRRDWMIKIVYEELVKLFGGDQEPQVDPPKTPWIVLLVGVQGSGKTTTAGKLAYYYVRRGYKVGLVSSDTHRPGAYEQLKRLAEEAGAMFYGEREGDPAEIARRGLEDLLSRGAEIVIVDTAGRHGHGEEARLLDEMKAIASKVRPDEVALVIDASIGQKAMGLAERFHKSTPIGSIIVTKMDGTARGGGALTAAAVTGARIKFIGTGETLGELEPFAPRRFVARILGMGDLESLLERIKSLEEAGELDRAAEDVLKGRITMRTIYRQLRAMRKLGPLGKVLQMLPGASMLASIDEGALKLGEEKMKRWMAIIESMTYEELDRPEIIDKRRMRRIAIGSGTSVDDVRELLVYYKNLKTMMKKLKRDKRLLRRLGMEL,soluble
10,SFAAEITLTTPDNFALKADYYPSKNSVKPANNRAVLMLHQCNYNRTMYNNIGAQLAQQSIHALSLDFRGFGESISSEFNVADVRKLPQAERGKAWSNMSSHWPEDVQLAFDYLKEKVGNNGKVGIIGASCGGSQAINLAEKENISAISFFSSSQRDENIARYGKTLVDTPTLIIASEDDGRTFTSAQQLFSTAKNPSSKMISYKGSMHGYPLLASDKALETTIVTWFSNEL,not soluble
11,MAAAGQEKGYLTQTAAALDKSPSLSPQLAAPIRGRPKKCLVYPHAPKSSRLSRSVLRWLQGLDLSFFPRDINRDFSNGFLIAEIFCIYYPWELELSSFENGTSLKVKLDNWAQLEKFLARKKFKLPKELIHGTIHCKAGVPEILIEEVYTLLTHREIKSIQDDFVNFTDYSYQMRLPLVSRSTVSKSIKDNIRLSELLSNPNMLTNELKAEFLILLHMLQRKLGRKLNPEWFDVKPTVGEVTLNHLPAQASGRRYNLKVKRGRVVPVLPNIGSGGSSHREIHVKQAGQHSYYSAMKPIRNMDKKP,soluble
12,MSLDSIVNAYEESDVLDPRTDAERPSVPPVIKPVDLGPVHVETPVVLSPMAGVTNWPFRVICESYGPDGLYVAEMITARALVARNPKALRLCRFAPSEKIRSLQLYGVNPSIVEQAAKIVIDENMADHVDLNFGCPVPKVTRRGGGSALPWKTDLFREIIQRVVKVCDAANVPVTAKIRVGIDHEHETFLEAGHIAQEEGCKAVTLHARTTAEYYGGHSDWSRIGELVSELDIPVFGNGDIWGANDALAMVAETGCAGVAIGRGCQGRPWLFADIKNAFAGSDERVDPTLGDVCRVIERHAELLTEFYDEGHHHHHH,not soluble
13,MSELFKKLMDQIEMPLEIKNSSVFSSADIIEVKVHSLSRLWEFHFSFPELLPIEVYRELQTRLVNSFEKADIKATFDIRAETIDFSDDLLQDYYQQAFCEPLCNSASFKSSFSQLKVHYNGSQMIISAPQFVNNNHFRQNHLPRLEQQFSLFGF,not soluble
14,SLIENVDAQADSSWPHRGQIEVRNLTVKYTEAGHAVLKNLSFSAEGRQRVGILGRTGSGKSSLFNALLKLVYTDGEISIDGVNWNKMPLEKWRKAFGVVPQKVFIFTGPLRMNLDPYGCHSDEELWRVAEEVGLKTVIEQFPDKLDFQLEYGGYVLSNGHKQLICLARSILSGARILLLDEPSAHLDPVTIKVLKKTLRQSFSTCTILLSEAKVEPLLECDSFLMMDKGQVKTYDSIQKLLNETSDLKQAISPAE,soluble
15,ESCDLEVYDRVNQSDQLCVISGQGNKRVSFYVTEGVVRNLSLGDKMTVEKEGNAYEGVINDISTMVDDSNGLFKIKADLAQADSVATGSVVKVKVISGRSDNVMTVPVDAIYYDGGVGNVYVYEDGAVHKKEVEVGLYDSELAEIRSGLAADELVISTWSSQLYEGSTVNLKSEGGESAPAGKEPGTGRTETSAAAE,not soluble
16,MQKLKQQVFDANMDLPRYGLVTFTWGNVSAIDRERGLVVIKPSGVAYETMKVDDMVVVDMDGKVVEGRYRPSSDTATHLALYQRYPSLGGVVHTHSTHATAWAQAGMAIPALGTTHADYFFGDIPCTRALSEEEVQGEYELNTGKVIIETLGEVEPLHTPGIVVYQHGPFAWGKDAHDAVHNAVVMEEVARMAWIARGINPALNPIDDYLMNKHFMRKHGPNAYYGQK,not soluble
17,MSLSRGRLKIAVPRLQRVANFDDLDPLVAEPDIDLQWIQPGSPIPADVDVVVLPGSKATRTELDLMRREGWDIDIHAHVRRGGRVVGLCAGFQMLGKVVRDPQGIEGPAGETAGLGLLDIETEISGDKRLIEIDAVDRISGCRVVGYEMHMGRTTGAGLARPWLRLEEGGSERAEGAVSADGRVSGGYLHGIFGGDAFRSAWLAQIGAASSGLDFERRVEETLDALADHCESNLDLDALLALAREGHHHHHH,soluble
18,MPITKFIWSPSGTGLSEHAWATSESTGAAWVGNDAAAHISLLRSTVAEELAVPLEQAGMDAATMQRAVDTAIDTWGLRGQAEQDPMTLSSGQTRRLAIAGALITRPEALVLDCPTDGLDTEAIEILHRIVDSFPGNVTVYDRMHTALATTAAEQLRLTSSGDLVPEPAPDPVDTVSARFTPIDLSTDHGPLLCAKNLRIPRGATTVGPISCEVSPSSVTHLAGLNGTGKTSFFLAALGLVASTGTLQVADGVTMGWAPADMDSALSRRTVATELTVGATPELAQAAIEFMGLEQWADTHPLDVPAAWRRFVLIAAALVRGPHLLLLDEPTVNLDAPNHGHLSLLMHRYCAGEFHRMAGLDLGGHHPAVLFTCHDARYAQAVSTAEIRI,not soluble
19,DNARTNPLKDLEFFLHSFRGLLEKAPVVVGITKMDIRSQPGIDVYHKYLAKHNLNVPVFEIDARKEDDVKQLVSAMLFSIDPGLEV,not soluble
20,MKKDIFYCEQWSYGYKKLHKPFSEKQAEEKHLKGELYTAVIGSATQPEYVITLREEVGFFSVHFFDKFGRDYLTHQFQKYSNSNYYFLSMAVWRDYITLESHDLAEGYTYFFNENTDDCYVLKEDFINNERYEKTELYSQKDKVILFPKFGEYDLVLNPDII,not soluble
21,MIIYVSACRHAVCSETVLDVLGNVSEKMKKGIELARSVAHLELCQDKITFQRRYVAIEFDEDELLDGKSSILAVAVSIYFAIVGLRVPSDLMITGSLNLKGTVIPISGLDKTVKVIKLRITLSGSSSA,not soluble
22,MGTHSGHERNGESARGGALQRLERRLAAAWAEQDAYQIEQLAGMIYDRLVRSDPSAAATVLEQNAHRLAVAGKPAEAAELATRLIRHWRELEQRPFYLARLQQMVLEPLQALSGVEAARARTMVLEAVLAWKRASATVDTEEAAPAELAPVQDALVDAYVLCGEWARAQYQVVCRGGPAERDLAFIDEQLGPHLANDVERMLARTRLVLFYVLAGNLKAGRALVEEIQRKHPTAPMTNFVVILMQVLERARNVDSSKRRLLRNFCDDLKRVYHWAFSLDPELDAMLDDVLKAQGL,not soluble
23,MGSDKIHHHHHHIFSSCTDDFEKLNTSNIQVDPADLPFAAQCTEPMTYCYPPQQNMFQFWTNLTIDLYGGYFMTPNGNFTNGDMGENRGHSGGMYENYYLHIFNNTRRIIAQCDASGERGLSGVMRIVQAYGTLMTTDAYGPIPYSSILSGENEVYFEFDSQKDLYKAMLEDLSTAITDISAMGADEIAKLKSFDCWCNGDKDLWVKIANTMKLRMALRLSKRETEAGNAGMNLKAIATEAAQNTLATVNKDILIDKSLENEMWLMFNWGDCGFNANLVTIMSGTKDPRQPLYMTLNTGDIKNEAGTTTVAANSQYLGIRFASGLPAKPNSWGNFSGWIQGNNGSSYSMPLPIMKAAEAYFLLAEAKLRWDIGSESVKNLYENGIRVSMTNELAYRGAYAGIKEYPEGAVDAYINGTSTQIDYTDPIKAELSTPAVNKLSVKWDESASNEEKLERIITQKWLALFPLSTEGWAEQRRTGYPRFFPAFVNESNGAVNTEEGVRRVIYSSQAYDANAKGVEGGIKLLDEENSSKFGISGDKGGTHLWWDNADKGNF,not soluble
